Positions count from the first letter of the chain named. Several values for one entry are separate records, joined by “and”; a condition that tells them apart may be missing. Equal entries are not always repeated. Blank lines part the entries; values can stand above or below the molecule they belong to.
Columns and labels:
recombinant human APRIL [1] = target: T1, recombinant human APRIL (human, UniProt O75888 105-250, limits assumed); assay: cell-based or functional assay
T1 sequence (looked up): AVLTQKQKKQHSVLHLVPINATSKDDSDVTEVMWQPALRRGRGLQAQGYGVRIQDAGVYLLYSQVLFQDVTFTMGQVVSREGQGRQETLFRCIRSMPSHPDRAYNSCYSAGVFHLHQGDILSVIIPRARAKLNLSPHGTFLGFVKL

[2] = target: recombinant human BAFF (human) (UniProt Q9Y275); assay: cell-based or functional assay
[3] = target: recombinant human BAFF (human) (UniProt Q9Y275)
recombinant human BAFF [4] = target: T2, recombinant human BAFF (human, UniProt Q9Y275 134-285); assay: cell-based or functional assay
recombinant human BAFF [5] = target: T2, recombinant human BAFF; assay: cell-based or functional assay; remark: listed apart in the source
recombinant human APRIL [6] = target: T1, recombinant human APRIL; assay: cell-based or functional assay; remark: listed apart in the source
recombinant human BAFF [7] = target: T2, recombinant human BAFF; assay: cell-based or functional assay; remark: listed apart in the source

APRIL IC50 (pM) (recombinant human APRIL [1]): 891 pM | APRIL IC50 (ΔWT) (fold of WT TACI (68-110)-Fc) (recombinant human APRIL [1]): 0.07 | BAFF IC50 (pM) [2]: 2180 pM | BAFF IC50 (ΔWT) (fold of WT TACI (68-110)-Fc) [2]: 1.17
Molecule: TACI vTD-Fc K77E, Y102D (SEQ ID NO: 192) (Fc fusion)

APRIL IC50 (pM) (recombinant human APRIL [1]): 1940 pM | APRIL IC50 (ΔWT) (fold of WT TACI (68-110)-Fc) (recombinant human APRIL [1]): 0.16 | BAFF IC50 (pM) [2]: 1460 pM | BAFF IC50 (ΔWT) (fold of WT TACI (68-110)-Fc) [2]: 0.79
Molecule: TACI vTD-Fc Q75E (SEQ ID NO: 177) (Fc fusion)

APRIL IC50 (pM) (recombinant human APRIL [1]): 20000 pM | APRIL IC50 (ΔWT) (fold of WT TACI (68-110)-Fc) (recombinant human APRIL [1]): 1.62 | BAFF IC50 (pM) [2]: 2360 pM | BAFF IC50 (ΔWT) (fold of WT TACI (68-110)-Fc) [2]: 1.27
Molecule: TACI vTD-Fc Q75E, A101D (SEQ ID NO: 180) (Fc fusion)

APRIL IC50 (pM) (recombinant human APRIL [1]): 13400 pM | APRIL IC50 (ΔWT) (fold of WT TACI (68-110)-Fc) (recombinant human APRIL [1]): 1.09 | BAFF IC50 (pM) [2]: 1790 pM | BAFF IC50 (ΔWT) (fold of WT TACI (68-110)-Fc) [2]: 0.97
Molecule: TACI vTD-Fc Q75E, F78Y (SEQ ID NO: 179) (Fc fusion)

APRIL IC50 (pM) (recombinant human APRIL [1]): 10700 pM | APRIL IC50 (ΔWT) (fold of WT TACI (68-110)-Fc) (recombinant human APRIL [1]): 0.87 | BAFF IC50 (pM) [2]: 1890 pM | BAFF IC50 (ΔWT) (fold of WT TACI (68-110)-Fc) [2]: 1.02
Molecule: TACI vTD-Fc Q75E, K77E (SEQ ID NO: 178) (Fc fusion)

APRIL IC50 (pM) (recombinant human APRIL [1]): 11100 pM
Molecule: TACI vTD-Fc Q75E, Y102D (SEQ ID NO: 181) (Fc fusion)

IC50 (read off the curve): blockade of human BAFF signalling via TACI (NF-κB luciferase reporter, Jurkat/NF-κB/TACI cells) [3]: 1000 pM | APRIL IC50 (pM) (recombinant human APRIL [1]): 566 pM | APRIL IC50 (ΔWT) (fold of WT TACI (68-110)-Fc) (recombinant human APRIL [1]): 0.05 | BAFF IC50 (pM) [2]: 5490 pM | BAFF IC50 (ΔWT) (fold of WT TACI (68-110)-Fc) [2]: 2.96
Molecule: TACI vTD-Fc R84Q (SEQ ID NO: 30) (Fc fusion)

APRIL IC50 (pM) (recombinant human APRIL [1]): 11200 pM | APRIL IC50 (ΔWT) (fold of WT TACI (68-110)-Fc) (recombinant human APRIL [1]): 0.91 | BAFF IC50 (pM) [2]: 2350 pM | BAFF IC50 (ΔWT) (fold of WT TACI (68-110)-Fc) [2]: 1.27
Molecule: TACI vTD-Fc R84Q, A101D (SEQ ID NO: 187) (Fc fusion)

APRIL IC50 (pM) (recombinant human APRIL [1]): 12300 pM | APRIL IC50 (ΔWT) (fold of WT TACI (68-110)-Fc) (recombinant human APRIL [1]): 1 | BAFF IC50 (pM) [2]: 1860 pM | BAFF IC50 (ΔWT) (fold of WT TACI (68-110)-Fc) [2]: 1.01
Molecule: TACI vTD-Fc R84Q, Y102D (SEQ ID NO: 188) (Fc fusion)

APRIL IC50 (pM) (recombinant human APRIL [1]): 11600 pM
Molecule: TACI vTD-Fc Y102D (SEQ ID NO: 190) (Fc fusion)

IC50 (read off the curve): blockade of human BAFF signalling via TACI (NF-κB luciferase reporter, Jurkat/NF-κB/TACI cells) (recombinant human BAFF [4]): ~700 pM
B1: 20 TACI CRD2-Fc (Fc fusion)
variant TACI domain - linker - Fc fusion chain: SLSCRKEQGKFYDHLLGDCISCASICGQHPKQCAYFCENKLRSGSGGGGSEPKSSDKTHTCPPCPAPEAEGAPSVFLFPPKPKDTLMISRTPEVTCVVVDVSHEDPEVKFNWYVDGVEVHNAKTKPREEQYNSTYRVVSVLTVLHQDWLNGKEYKCKVSNKALPAPIEKTISKAKGQPREPQVYTLPPSRDELTKNQVSLTCLVKGFYPSDIAVEWESNGQPENNYKTTPPVLDSDGSFFLYSKLTVDKSRWQQGNVFSCSVMHEALHNHYTQKSLSLSPG

IC50 (read off the curve): blockade of human BAFF signalling via TACI (NF-κB luciferase reporter, Jurkat/NF-κB/TACI cells) (recombinant human BAFF [4]): ~600 pM
B2: 31 TACI CRD2-Fc (Fc fusion)
variant TACI domain - linker - Fc fusion chain: B1 variant TACI domain - linker - Fc fusion chain with G17Q, S21N, A34D

IC50 BAFF (Δ TACI 30-110-Fc) (recombinant human BAFF [5]): 0.43 fold of TACI 30-110-Fc | IC50 APRIL (Δ TACI 30-110-Fc) (recombinant human APRIL [6]): 55.8 fold of TACI 30-110-Fc | BAFF IC50 (pM) (recombinant human BAFF [7]): 2200 pM | BAFF IC50 (ΔWT) (recombinant human BAFF [7]): 1.18 fold of WT TACI (68-110)-Fc
B3: belimumab (antibody, V domains shown)
VH: QVQLQQSGAEVKKPGSSVRVSCKASGGTFNNNAINWVRQAPGQGLEWMGGIIPMFGTAKYSQNFQGRVAITADESTGTASMELSSLRSEDTAVYYCARSRDLLLFPHHALSPWGRGTMVTVSS
VL: SSELTQDPAVSVALGQTVRVTCQGDSLRSYYASWYQQKPGQAPVLVIYGKNNRPSGIPDRFSGSSSGNTASLTITGAQAEDEADYYCSSRDSSGNHWVFGGGTELTVLG

BAFF IC50 (pM) [2]: 9170 pM and 7300 pM | BAFF IC50 (ΔWT) (fold of WT TACI (68-110)-Fc) [2]: 4.95 and 3.94
B4: Telitacicept (label of two rows of Table E29) (Fc fusion, not shown: a dimerising Fc or GST)
chain: SRVDQEERFPQGLWTGVAMRSCPEEQYWDPLLGTCMSCKTICNHQSQRTCAAFCRSLSCRKEQGKFYDHLLRDCISCASICGQHPKQCAYFCENKLRSPVNLPPEL

Source: patent US20250019412A1 (ALPINE IMMUNE SCIENCES, published 2025)
